Assay results taken from the supplement of paper PMC9170038.

System: MS2 coat protein
Experiment: apparent KD of MS2 coat protein; designed switch direction (-1 OFF switch, 1 ON switch): -1; higher = weaker reporter binding
Summary of the method: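 On Illumina chips, designed RNA switches with common flanks were made by stalled E. coli RNA polymerase. Titrations with SNAP-549-labelled MS2 coat protein, doubling from 0.7 or 1.5 nM to 3 µM, were done with no input, with 200 uM small-molecule ligand, or with an oligonucleotide input. Apparent KD is the median per design over clusters, from curve fits of normalised cluster fluorescence.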

[1] = input ligand: microRNA oligo, concentration not stated
[2] = Eterna round: R95, input ligand: microRNA oligo, concentration not stated
[3] = Eterna round: R95, input ligand: FMN 200 uM
[4] = Eterna round: R95, input ligand: none

Sequence	apparent KD of MS2 coat protein (input ligand: FMN 200 uM)	apparent KD of MS2 coat protein [1]	apparent KD of MS2 coat protein (input ligand: none)	apparent KD of MS2 coat protein [2]	apparent KD of MS2 coat protein [3]	apparent KD of MS2 coat protein [4]
UAUUACCUAGGAUAUACAUGAGGAUCACCCAUGUCACGGGUCAACUUGUCCUAUGCGUGUAGAAGGAGGGACCC [JL Ceriza mod 6] (Eterna round: R96, puzzle: Exclusion 3)	25 nM	16.5 nM	25.4 nM			
UAUUACCUAGGAUAUACAUGAGGAUCACCCAUGUCACGGGUCAACUUGUCCUAUGCGUGUAGAAGGAGGGACCC [JL Ceriza mod 6] (puzzle: Exclusion 3)				18.9 nM		
UAUUACUCAGGAUAUAUGAUGUGAAACAUGAGGAUCACCCAUGUAAUAUUAUGGAUGUAAAUAGAAGGGAGAUUAU [Mat - Exclusion 5 - JL mod - D19] (puzzle: Exclusion 5)				51.8 nM	49.2 nM	64.6 nM
UAUUAGCAAGCAAAUGGGUACAUGAGGAUCACCCAUGUGCUCGUCUUAUAAGGUACUGUGACGAACGUCACGGUACC [mod--Eli5] (Eterna round: R97, puzzle: Sensor, turn-off variant 1)	27.8 nM		26.8 nM			
UAUUAGCAAGCAAGAUCCUACAUGAGGAUCACCCAUGUGCUCGUCUUAAACGCAGAAUUACUGCGAGCUCGUCUUAU [Winner reversed engineered 25] (Eterna round: R97, puzzle: Sensor, turn-off variant 1)	579 nM		849 nM			
UAUUAGCUAGGAUAUACAUGAGGAUCACCCAUGUCACGGGUCCACUCAUCCUAUGCGUGUAGAAGGAGCGACCC [JL Ceriza mod 1] (puzzle: Exclusion 3)				23.6 nM		
UAUUAGCUAGGAUAUACAUGAGGAUCACCCAUGUCACGGGUCCACUCGUCCUAUGCGUGUAGAAGGAGCGACCC [JL Ceriza mod 2] (puzzle: Exclusion 3)				20.6 nM		
UAUUAGCUUGCGAGAUCCGACAUGAGGAUCACCCAUGUGCUCGUCUUAUAUGGGAGGGAGGGAAAACCCUCCCUCCC [mod-Eli] (Eterna round: R97, puzzle: Sensor, turn-off variant 1)	23.8 nM		25.4 nM			
UAUUAGUAAGGAUAUCCUUGCAUGGACGAAAGUCCAUGCAAGGAGAAGGUACAUGAGGAUCACCCAUGUUUAUU [Mod of Fisker 15 - Jieux - Exclusion 4] (Eterna round: R97, puzzle: Exclusion 4)	18 nM		17.4 nM			
UAUUAGUGAGGAUAUGGUAUAGAUAAGAUGAUGAAAGAACUCCAGAAGGCACAUGAGGAUCACCCAUGUAGUAG [JL-ex4-2.08 Jieux mod] (puzzle: Exclusion 4)				23.7 nM	20.4 nM	20.9 nM
UAUUUACAUGAGGAUCACCCAUGUCAGGAUAUGCUCGAUAUAUGGAAACAUAUAUCGAGCAGAAGGGACUAGCG [Jieuxxlusion 7 - Jieux - Exclusion 1] (Eterna round: R97, puzzle: Exclusion 1)	152 nM		72.7 nM			
UAUUUAUAUGAAGGAUAUACUUAACAUGAGGAUCACCCAUGUGGUGUUGUGAGUGAGUGAGUUUAGUAGAAGGUCAAUUCUUUU [JMF's solution 96] (Eterna round: R96, puzzle: Exclusion NG 2)	893 nM	415 nM	448 nM			
UCAAACAUCGUUAGGAUAUGCUGGACUAAAUAGUGGCAGAAGGAACAUGAGGAUCACCCAUGUGCCUCGAUUGC [Eternabot (L2) Solution 26] (Eterna round: R97, puzzle: Brourd's mod of Exclusion 4)	17.4 nM		13.4 nM			
UCAAGCUUUAAGCGCGUGAACAUGAGGAUCACCCAUGUAUUUCGGGUUUUGGUUUUUUGUAUGGGUUCUUGUCUUAU [JR_SWV3TOV1_Sub096] (puzzle: Sensor v3, turn-off variant 1)				19.2 nM	39.2 nM	41.8 nM
UCAAGUAUGUAGGAUAUCGAUGUCCUCGGACAUCGAGAAGGACGUACAUGAGGAUCACCCAUGUAACUUGCAUG [Exclusion 6 - B - 10:b] (puzzle: Exclusion 6)				44.3 nM		
UCACACGGAGGAUAUACCGUCGGUCAUUGGUGUGACGUAUCACAUGAGGAUCACCCAUGUAGAAGGCCGUGCUU [Eternabot (L2) Solution 14] (Eterna round: R97, puzzle: Exclusion 2)	394 nM		208 nM			
UCACGGGACUGAGGAUAUACAUGAACCAUGGUUGUAGAAGGCAGAAGGUUGGAUCAUACACUAAACAUGAGGAUCACCCAUGUU [JR_ExcNG1_Sub028] (Eterna round: R96, puzzle: Exclusion NG 1)	16.4 nM	15.7 nM	21.8 nM			
UCACGGGACUGAGGAUAUACAUGAACCAUUUUUGUAGAAGGCAGAAUGUUAGAUCAUACACUAAACAUGAGGAUCACCCAUGUU [JR_ExcNG1_Sub025] (Eterna round: R96, puzzle: Exclusion NG 1)	15.1 nM	18.8 nM	19.7 nM			

Sequence	apparent KD of MS2 coat protein (input ligand: FMN 200 uM)	apparent KD of MS2 coat protein [1]	apparent KD of MS2 coat protein (input ligand: none)	apparent KD of MS2 coat protein [2]	apparent KD of MS2 coat protein [3]	apparent KD of MS2 coat protein [4]
UCACGGGACUGAGGAUAUACAUUUAUUAUUUUAGUAGAAGGCAGAAAGUUAGUUUUUUCACUAUACAUGAGGAUCACCCAUGUU [JR_ExcNG1_Sub085] (Eterna round: R96, puzzle: Exclusion NG 1)	21.2 nM	20.4 nM	29.1 nM			
UCACGUUAGGAGGAUAUCGAUCCAUUAGCGCGACGAGAAGGCCUGACAUGAGGAUCACCCAUGUGGUCAAACAA [Bexelaar] (puzzle: Exclusion 6)				265 nM	52.1 nM	158 nM
UCAGGCGAUGUCAGGAUAUCGGCUGCCCAAUUGGCUGAGAAGGGACAUGAGGAUCACCCAUGUUAGAUCCAGCC [BmEX4 A.25] (Eterna round: R97, puzzle: Brourd's mod of Exclusion 4)	30.2 nM		16.9 nM			
UCAUGGUAGCAGGAUAUGCUAGAAAUUUUUUAUGCAGAAGGGCUUACAUGAGGAUCACCCAUGUGUUAGGUCUA [JR_E6_Sub070] (puzzle: Exclusion 6)				50.8 nM	47.2 nM	48.5 nM
UCAUGGUAGCAGGAUAUGCUUGUAAUUUUUUUUGCAGAAGGGCUUACAUGAGGAUCACCCAUGUGUUAGGUCUA [JR_E6_Sub068] (puzzle: Exclusion 6)				30.7 nM		
UCAUGUAUGUAGGAUAUCGAUGUCCUUGGACAUCGAGAAGGACGUACAUGAGGAUCACCCAUGUAACUUGCAUG [Exclusion 6 - B - 11:d] (puzzle: Exclusion 6)				18.7 nM		
UCAUGUAUGUAGGAUAUCGAUGUCUGCGGACAUCGAGAAGGACGUACAUGAGGAUCACCCAUGUAACUUGCAUG [Exclusion 6 - B - 11:e] (puzzle: Exclusion 6)				17.8 nM	31.9 nM	13.1 nM
UCAUGUCCUGAGGAUAUGUAGCGGAUAAACGCAACAGAAGGCAGGACAUGAGGAUCACCCAUGUGUGCCUUCCA [Exclusion 6 Mod of JL of Mod of Letion by ViennaUCT] (Eterna round: R97, puzzle: Exclusion 6)	8.14 nM		113 nM			
UCCGAAGCAGGAUAUACAUGAGGAUCACCCAUGUGCUUGCAUGGCGUGGGAAGUCAUAGUAGAAGGGCUACGCC [jl-ex3-4.71 ViennaUCT mod] (Eterna round: R97, puzzle: Exclusion 3)	53.1 nM		33.7 nM			
UCCGUGUCAGGAUAUAACUGGUCGAGCGCAGAAGCGUCCUGUUAGAAGGGACAUGAGGAUCACCCAUGUUUAAC [Eternabot (L1) Solution 74] (Eterna round: R97, puzzle: Exclusion 4)	213 nM		38.5 nM			
UCCGUGUGAGGAUAUGCGAAUGACGAGUUACCUUGUCGCAAGCAGAAGGUACAUGAGGAUCACCCAUGUCCUAU [Eternabot (L1) Solution 61] (Eterna round: R97, puzzle: Exclusion 4)	27.8 nM		20.4 nM			
UCCUGACAUGAGGAUCACCCAUGUGAGGAUAUGUGGUUCGGGUCAACUCCCGUUCCGUGCAGAAGGCACAGGGC [EX1 A.29] (Eterna round: R97, puzzle: Exclusion 1)	26.4 nM		16.2 nM			
UCCUUGUUGGAGGAUAUGCAUAGCAUCACGCCUGUAGAAGGCCAAACAUGAGGAUCACCCAUGUGCAUGGGAUG [Eternabot (L1) Solution 77] (Eterna round: R97, puzzle: Exclusion 6)	244 nM		216 nM			
UCGAGGUCAGGAUAUACAUGAGGAUCACCCAUGUGGAUGUAAGGUAGGAGAAGAGUAGGUAGAAGGGACGAGAG [JR_Exclu3_Sub049] (puzzle: Exclusion 3)				37.8 nM	46.7 nM	55.4 nM
UCGAUGUGAGGAUAUAACAGGACGAACUCUUAAUAGUACGGUUAGAAGGCACAUGAGGAUCACCCAUGUGACGA [EX4 B.27] (Eterna round: R97, puzzle: Exclusion 4)	40.1 nM		17.7 nM			
UCGCUGCGAGGAUAUACAUGAGGAUCACCCAUGUGCGGGUCCGGGUCUUCGUCCAUUAGUAGAAGGCGCAGUGA [JL Laongeedie mod 4] (Eterna round: R96, puzzle: Exclusion 3)	705 nM	112 nM	119 nM			
UCGCUGCGAGGAUAUACAUGAGGAUCACCCAUGUGCGGGUCCGGGUCUUCGUCCAUUAGUAGAAGGCGCAGUGA [JL Laongeedie mod 4] (puzzle: Exclusion 3)				99.9 nM		
